This series in a line: label from the status in PepcDB records.
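Also: failed if final PepcDB status was selected cloned or expressed and not failed if soluble or beyond.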

In the case of “MPKANLEIIRSTYEGSASSNAKHLAEALSEKVEWTEAEGFPYGGTYIGVEAIMENVFSRLGSEWNDYKASVNMYHEVSGKDVIIAEGMYSGVYKDTGKSFEAEFVHVWQLENGKIVKFKQYVDSHLVREAMKS”, the protein production entry is given as “not failed”.

As to “MPKASLIIRERGLPKREVLLSPDRQWTIGRQLDCSIRLTDAYVSRLHAVINAFLFRGQPLYFIRDAHSRNGTFLNGFPLQHSTLLHHEDVIGVGTTLLVFYYPDMFREISLDECPLEHHHHHH”, the protein production entry is “not failed”.

With “MPKFDVSKSDLERLIGRSFSIEEWEDLVLYAKCELDDVWEENGKVYFKLDSKDTNRPDLWSAEGVARQIKWALGIEKGLPKYEVKKSNVTVYVDEKLKDIRPYGVYAIVEGLRLDEDSLSQMIQLQEKIALTFGRRRREVAIGIFDFDKIKPPIYYKAAEKTEKFAPLGYKEEMTLEEILEKHEKGREYGHLIKDKQFYPLLIDSEGNVLSMPPIINSEFTGRVTTDTKNVFIDVTGWKLEKVMLALNVMVTALAERGGKIRSVRVVYKDFEIETPDLTPKEFEVELDYIRKLSGLELNDGEIKELLEKMMYEVEISRGRAKLKYPAFRDDIMHARDILEDVLIAYGYNNIEPEEPKLAVQGRGDPFKDFEDAIRDLMVGFGLQEVMTFNLTNKEVQFKKMNIPEEEIVEIANPISQRWSALRKWILPSLMEFLSNNTHEEYPQRIFEVGLATLIDESRETKTVSEPKLAVALAGTGYTFTNAKEILDALMRHLGFEYEIEEVEHGSFIPGRAGKIIVNGRDIGIIGEVHPQVLENWNIEVPVVAFEIFLRPLYRH”, the protein production entry is given as “not failed”.

With “MPKFYCDYCDTYLTHDSPSVRKTHCSGRKHKENVKDYYQKWMEEQAQSLIDKTTAAFQQGK”, the protein production result is recorded as “not failed”.

As for “MPKRKNTSIKDYKLKSGKKRYMFQIYLGTNSNGKPIITRRRGFKSYAEAEAVFNKMSQIKPDNFVKQKQIKVAELRELWFENYKTQVKESTANKNKQVFDNHVIPAFGNQYIDKITVAELQKWADRKAKQIVKYRDAINEFNALFEYGIRLNYVSENPLKRIIIPKKTSRPRRDTEHNVYTQDELNQFLEVAKDYGLVPYTYFKLLSATGLRKSEALALTWSDINLTAGTLSVNKTLAYGLNGKTIIQPPKSPKSKRILPISDGLKEVLIDYKRKQKIISKELFHTNKGTYLRISKPDQWLKSIYAKDHEEKAEYAKKYNLKEPQPDLRHITVHGFRHTFATLLIAETNVKPKTVQMLLGHENIQMTLDIYTHINKKNTEDAVNALKQLNI”, the protein production result is reported as “failed”.

For the sequence “MPKRSKEDTEITIQKIMDAVVDQLLRLGYDKMSYTTLSQQTGVSRTGISHHFPKKTDFTAALDGRIFKMFIEHLEFEKGLDAFSQSWIKALEDSEFLAILRLLFHHIVTSESAHEFAANGIDRLYKMVESQFGSGGDKELEWLIGRSLIQMSK”, the protein production entry is “not failed”.

Regarding “MPKSMGMAVAVPVTLAVIAAGGAGVGAYMYNERNLALEELARQSELSGSIATLETEVAGLTSQVKAAEGQLGDLNGQLEAAKAELAEVQGQHDRLSSELEPMRAEIASFDSRKAEAEESTAKAIADFQAADARLKELTDREDNLRATVSKLAAEVQDLDRRMEGLRAESGALVAAAQSAARQRTDLQGMVETLAGLLATRSEELVQLERRIGEQDLKVPAAGPAPLAAAAGAASQAPDGAGAAEPAAKEAETAAPETDAAGQTASQAEGSEAGSQPAAEPEAAEADGGNGAAEEPEAGAQDEGADAAAEPAPTGASEDAPDDAAAEGSTAEAEAAPEASGSTAGASDDAASQGSTAASEEPEAAPPSEAPAKAEAPDLGAGTYGIGPLFATFSPDGSFTMRNVELDTSASGKWEVTDGLLTLSDPEGGSGSSSFPMLCQLVKEAEALKLAKAQTGSCPLAGMEIARR”, the protein production entry is “failed”.

For the sequence “MPKWTPYKRHPGVYEYQTKKGKRFGVRRTYDDAMGERKEFSKSGFIHWQDADIEIKRFEAKLVSGEVSGSLANRMTIDQYYQQMAKRKMKMGIWRESTARANGNFYSKYLKPAFGKTPLQDVSRAKYQRFLDELSQSGLALTTVHTIDAVMKSIMNAAEFEDVIDKNRLRGMQINGKAPRNKDLEPHSFELWLNAAKTNLDKYEMALIITATLGLRRGEVMGLRNESIKISHDQINDADVAQISIDMQRNTNELNGGPLKTKSSYRTIWAFGKTVDHLKYAMITADNLRQRNNIQAEKHWLWLNNDGNPLHPTHLNRLMRRVSNRSGVEVYPHLLRHYFATQAIAANKPQIDVMHYLGHKNLQMTADYTRSTKAASLNVFNSIDKFL”, the protein production result is “failed”.

In the case of “MPLAIIPWFELPSASLGPFTLQSFGVLSALGILAAVQLSARGAKQLGKDPQVILDFAVVGVLAGVVVGHLAHLFFYHPEELQDPLRIFKFWEGLSSMGGLAGGMIAAAVYFRRKRVRFTAYADAFALGVAPGWGIARVGCFTVHDHPGRLTDFFLAVRFPDGPRHDLGLYEAILLLSLGAVLWALHRRDVLRGRLLPLLALVYGIGRFLLDFLRATDVSYADARHLGLTFAQYFAVALVAYAVWGFARRPSDEERVRVSTGVGRR”, the protein production entry was “failed”.

Consider “MPLAVLERDGSFLGVLTPHSIVEVLLERERRLLEDARKINAEIRREADKAIEQLDIKAHYDTVTGLPNRQLFCDRLLQALAAHERDGNPVVLLFLDVDNFKSINDSLGHLVGDRLLRATAERIRTAVRDGDTVARIGGDEFTILLNGAKDTLNGALVAQKILDGLAQPFVFGAQQIVISVSIGIAVSPADGETMEQLLRNADTAMYHAKSRGKNNYQFFSPELNVQAYRRQEIERNLRCALLQGELGLRYAPRVDLRSGRIVALEVCPFWLSSELGDVPPDDFIPVAEETGLIVQIGIWAFRTACAHAAVWRTQGLADRCLSFRLSQRELDDPQFGDRIMSLLDGCGLEPENLQFELSERMLMTHAAHTLAVLQELSNRGIRFSVGDFGTGNASLRRLRRFPIDELKIDLSSVRDIEPDSDDAAVITAMIAMAKSLRMDVVAVGVETPEHVAFLLERGCRHGQGRLIGARLPPERIAALLAGDAVDLFVALEHHHHHH”, for which the protein production result is on record as “failed”.

For “MPLGSSAPPRMGGHTALAAALWPRRTDGFSAWLRMAVLIAFGSVLLALSAKVNLPLPLVPMTLQTLMVVLIGAAYGARLGAATVLAYLAEGAAGLPVFAGPVGGLAPLLGPTAGYLAGFVVAAVLVGWCADRGFDRSVAKLFAAMLAGHLAILTLGFAWLAFGLHLGLAKAWWVGVVPFLAGSLVKSALGAALLPAVRRIVDRQR”, the protein production result is given as “failed”.

As for “MPLHRTPRTGPEPRTLALLAGAGLAAGAAAWAVSRSRENPVVFRPNDDAPDRVARHPEATMPTGRTVTINRPRSELFAFWRDFSNLPQFMESVEHVTVVGDVSRWTLAAPFGRKITLETRIVEEVPDRLIAWRSTDGSDVRAEGAVTFRDAPAGRGTEVEAVVAYVPAGGEAGRLIARLFRLAPAMQGRRELRRFKMLMEAGEIATSRNRKD”, the protein production result is “failed”.

Regarding “MPLKSLKNRLNQHFDLSPRYGSVKKIMPNIVYADGFNPSVGDVVKIEKSDGSECVGMVVVAEKEQFGFTPFNFIEGARAGDKVLFLKEGLNFPVGRNLLGRVLNPLGQVIDNKGALDYERLAPVITTPIAPLKRGLIDEIFSVGVKSIDGLLTCGKGQKLGIFAGSGVGKSTLMGMITRGCLAPIKVIALIGERGREIPEFIEKNLKGDLSSCVLVVATSDDSPLMRKYGAFCAMSVAEYFKNQGLDVLFIMDSVTRFAMAQREIGLALGEPPTSKGYPPSALSLLPQLMERAGKEENKGSITAFFSVLVEGDDLSDPIADQTRSILDGHIVLSRELTDYGIYPPINILNSASRVAKDIISESQNLCARKFRRLYALLKENEMLIRIGSYQMGNDKELDEAIKKKALMEQFLAQDENALQPFETSFQQLEEILR”, the protein production entry was “failed”.

Take “MPLLQKRVIVSNKREKVINDRRSRQQTVTPAGSEMRYEASFRPENGGLEVVFRLDAPQYHALSVGDRGMLSYKGTAFVAFTPDPLEHHHHHH”: the protein production entry was “not failed”.

Consider “MPLLYILAIVVIVIILILLGIIAANYKKSGPQAALIVYGSGLGSKGVNKDSQGNRLKVVRGSGTFVLPIFQNARYLSLQSAAIDIKTEKVLSKDKIPVTVEATAMIKVGSTLQDIATAAEQFLGKRDEQRDAMADQVLRGHLRAIVGTMTVSELIEDRNKFSAEVQGQAGTDLSKMGLSIVSFVINDIRDDQNYIKALGAKEVARVQQEAAIAVANADKETRIQKAAADQDAQKAEALAATQVANAQKEKAISLAHYEQEQSIAAAEAKAQADQAQASADQAYAIQEAISKKETTEAEMQVELIKKQRETDLETQEVLRKAQENEANVVKAAEAAKAAQIAKAEADAREREVRAQAEAAAIEATAKATAKQREVTAMAEATAIEATGKAEAEAIRLKGLAEAEAIDKKAEAMQKMNDAAKLNMALEILPEVVASVSSNLQAVDSINIYGGEGSSKILGMSQESLKQGLDVLGTMGIDVPDLLNNFSSRGNSNETLEKVEKIEE”, for which the protein production entry is “failed”.

For the sequence “MPLPADPSPTLSAYAHPERLVTADWLSAHMGAPGLAIVESDEDVLLYDVGHIPGAVKIDWHTDLNDPRVRDYINGEQFAELMDRKGIARDDTVVIYGDKSNWWAAYALWVFTLFGHADVRLLNGGRDLWLAERRETTLDVPTKTCTGYPVVQRNDAPIRAFRDDVLAILGAQPLIDVRSPEEYTGKRTHMPDYPEEGALRAGHIPTAVHIPWGKAADESGRFRSREELERLYDFINPDDQTVVYCRIGERSSHTWFVLTHLLGKADVRNYDGSWTEWGNAVRVPIVAGEEPGVVPVV”, the protein production result is given as “not failed”.

“MPLPRVSPVPLAGPGRRGEGGVSSAPLAGGPWAAGRRRLPGLLIIFRRVFTVGFWVGGVLAKKYPFLLGLDRVLELVTGFRGEAARRVLAGDEDLVGLGFRRAVAAVEGWLDYPFADTVEGEVASFYLGLAIAYRAGPAAVSRVVAGEYLRASRLLAGEPGEVASGILGGLGFPVERGGLSVPWVVDRRGVVMLPLGWRMGVDVFLRLSAADESSPELRLANQMLLSGSVYLSDARLRALASAASRLAIESRVSEAASLESEAVERYARHLAALAEGGLPFIPEALPQCIKNVFAKAVGGERLGWLELYLALVFLARIRAGPDAVEELLTPSLGERVARLLARVYSQAPPADHQLPPCEVLAASGVCRCRGSLLSEYRRSVRSLLGLPDRGAGRR”: the protein production result is “failed”.

In the case of “MPLRSAGSGKASRDAVHHPLFARSYARISVTAETRLGMGGVRDRLLAGLSGRVIEIGAGNGLNFAHYPGAVSEVVAIEPERLLRQLAVEAALRCDVPVDVVPGAAEALPVKSEAFDAAVVSLVLCSVRDVSRALGELRRVLRPGGTLRFFEHGAGGGRAMAATQRALDRTVWPRLNGGCHLTRDAVSAVREAGFELGPYRRMLLPEKGPRLPTSYCVLGTAWRPGSAD”, the protein production result is given as “failed”.

Turning to “MPLTIRPARFEELPAVQAIERLSARRFVGWIDALADDDPSPLERLAERSASGGLLVADVETGEGPKAAGFVMFRPMEDSLYIEQIDVAPAFERRRIGATLINAVADRAVALGLSRLTLSTFREIPWNAPYYRRLGFVDLDDEA”, the protein production result was “failed”.

Turning to “MPLTPGTLLAGRYELLALLGEGGSAQVYRAQDGLLGREVALKVMHDYLPESDRSRFLREVRTLARLTHPGVVPVLDLGQEPEAGRPFFTMPLLTGGPITRLGPLEDAPGPLARFLTAAAFASRALHHVHSHGIVHRDLTPGNVLLDDTGLPRIMDFGLVALSEQTRHLTRSGVTLGTPAYMAPEQAKGGGVDARSDLYALGAVLYRVACGSPPFVGDSDQSVLYQHVYEPVPDPRDLNPAVPDAVARVLLWLLAKRADRRPQSGAALAHLWALARRDLWTTHARGQYRGGRARTGEHPDGPARVSDMQELWSVALPGEVTWPAAVVGEGDLVAVGTRGGQLVLTHTSGRPFATYAARDEVTAPATLIGGHVLYGAWDGTLRRVELQSGSEVWRHQARAEFTGAPTVWGGRLLAPSRDGHLHALSLRTGELAWAYRAGGSLAASPLVWAGAALQCDETGWLHALDARSGTPLWKVEVGTVHATPALLPGPPGTATLVIATWEGEVHAIGLEVQNGRAALAGEDAIRWTYDVEDEVWASPALTALDLPPDSGAAPDASAAPGGVVVVAGWGGKVRGLRLADGEDLWERTLDGRVTASPVISAGLVFLATEGGELLALDVRNGEVRWTCRERSGVQATPLAASGTLYVAFMDGTLRAYRNAHPEWRSEQEG”, the protein production entry is on record as “failed”.

Source of the values: a protein production outcome set (Wang et al. 2014).
